Data on 6 molecules can be found in article PMC9577226, “In vitro selection and optimization of high-affinity aptamer for milk allergen α-lactalbumin and its application in dual-mode detection”.

The labels stand for the following.
B1: LA-10 (ssDNA)
DNA: AGCAGCACAGAGGTCAGATGTAGTGCTGCGAAGTTGGCTCCGGCGGCGTCAGTCTAGCCGCCTATGCGTGCTACCGTGAA
B2: LA-11 (ssDNA)
DNA: AGCAGCACAGAGGTCAGATGTGGGTGCTGCGAAAGGACGGCATGGGGTCCAAAAGACCCCCCTATGCGTGCTACCGTGAA
B3: LA-9 (ssDNA)
DNA: AGCAGCACAGAGGTCAGATGCTGGGCTGCGAATGACGAATAAATACGCCGTTTCAGACGGCCTATGCGTGCTACCGTGAA
B4: LA-2 (ssDNA)
DNA: AGCAGCACAGAGGTCAGATGGGCTGCGAACAGTTGCATATGGCGCGACTCTAGGCGGGTCCCTATGCGTGCTACCGTGAA
B5: LA-1 (ssDNA)
DNA: AGCAGCACAGAGGTCAGATGGTGCTGCGAACTTAACGCAAGATAGGCTGGACGCGAGTCCCCTATGCGTGCTACCGTGAA

The first series has as its target T1, alpha-lactalbumin (α-La) (Bos taurus (bovine milk), UniProt P00711 20-142).
T1 sequence: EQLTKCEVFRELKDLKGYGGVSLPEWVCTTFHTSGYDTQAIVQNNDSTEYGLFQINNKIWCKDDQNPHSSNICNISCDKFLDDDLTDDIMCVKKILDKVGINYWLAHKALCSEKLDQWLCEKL
Briefly: fluorescence graphene oxide (GO) assay; 50 mM Tris-HCl, 5 mM KCl, 100 mM NaCl, 1 mM MgCl2, pH 7.4; 100 nM FAM-aptamer, 0-400 ug/ml α-La, 1 h in the dark, then GO 15 min; assay temperature not stated (SELEX at 37 °C). The following applies: protein: commercial; label: 5'-FAM; 5' stem-loop (predicted).
The term Kd denotes the free concentration of one partner at which half of the binding sites on the other are occupied at equilibrium, for simple one-to-one binding. Take B1: the Kd was 168 ± 28.9 nM.

Consider B2, for which the Kd is 175 ± 28.3 nM.

For the molecule B3, the Kd is 253 ± 32.2 nM.

Consider B4, for which the Kd is 101 ± 21.3 nM.

As for B5, the Kd is 92.6 ± 18 nM.

Still in this series, the particulars now being: protein: commercial; label: 5'-FAM; hairpin.
As for AGCAGCACAGAGGTCAGATGGTGCTGCGAA (structured_DNA) [LA-1t], the affinity, expressed as Kd, was 14.1 ± 4.15 nM.
